Data taken from patent publication US20110263454A1, “Methods of Identifying Functional Characteristics of Promoters, Transcription Modifying Proteins and Transcription Modulating Agents” (Salk Institute for Biological Studies, priority 2008, published 2011).

Columns and labels:
mAdiponectin promoter = experiment: NHR-promoter luciferase screen, mAdiponectin promoter; assay type: cell-based, mouse; settings: for Luc. act., normalized to lacZ / Normalized Luc. act., normalized to control: Adiponectin, HR component without or with its ligand; for mAdiponectin promoter reporter activity: transcription factor +/- ligand, control = 1.00
In short: (§1)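 CV-1 cells were co-transfected with 50 ng NHR (homodimer or NHR/RXR heterodimer), 100 ng promoter-luciferase construct and 50 ng LacZ. Luciferase was normalized to LacZ and to a no-NHR/no-ligand control.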

hG6PD promoter = experiment: NHR-promoter luciferase screen, hG6PD promoter; assay type: cell-based, human; settings: for Luc. act., normalized to lacZ / Normalized Luc. act., normalized to control: G6PD promoter reporter, co-transfected HR, without or with its ligand; for Normalized Luc. act., normalized to control: relative to control; for luciferase activity normalized to lacZ activity and to a control, hG6PD: hG6PD promoter-luciferase, CV-1 cells, NHR +/- ligand, control = 1.00
In short: as §1

mPgc1b promoter = experiment: NHR-promoter luciferase screen, mPgc1b promoter; assay type: cell-based, mouse; settings: for Luc. act., normalized to lacZ / Normalized Luc. act., normalized to control: PGC1b promoter reporter, co-transfected HR, without or with its ligand; for Normalized Luc. act., normalized to control: relative to control; for luciferase activity normalized to lacZ activity and to a control, mPgc1b: mPgc1b promoter-luciferase, CV-1 cells, NHR +/- ligand, control = 1.00
In short: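 Luciferase reporter read-out after co-expression in CV-1 cells of V5H6-tagged receptor (alone or with RXR), the promoter construct and LacZ. Values are luciferase/LacZ relative to a control lacking NHR or ligand; orphan receptors tested ligand-free.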

hPPARg1 promoter = experiment: NHR-promoter luciferase screen, hPPARg1 promoter; assay type: cell-based, human; settings: for Luc. act., normalized to lacZ / Normalized Luc. act., normalized to control: PPARG1 promoter, hormone receptor with or without its ligand; for Normalized Luc. act., normalized to control: relative to control; for Results of assays of transcription factor (+/- ligand) with hPPARg1: Table 6d, luciferase activity relative to control (control = 1.00)
In short: as §1

hIRF7 promoter = experiment: NHR-promoter luciferase screen, hIRF7 promoter; assay type: cell-based, human; settings: for Normalized Luc. act., normalized to control / Luc. act., normalized to lacZ: IRF7 promoter reporter; for Normalized Luc. act., normalized to control: HR without or with its ligand, relative to control; for Luc. act., normalized to lacZ: hormone receptor (HR) without or with its ligand; for hIRF7 promoter reporter activity: transcription factor +/- ligand, control = 1.00
In short: as §1

hPPARg2 promoter = experiment: NHR-promoter luciferase screen, hPPARg2 promoter; assay type: cell-based, human; settings: for Luc. act., normalized to lacZ / Normalized Luc. act., normalized to control: PPARG2 promoter, hormone receptor with or without its ligand; for Normalized Luc. act., normalized to control: relative to control; for Results of assays of transcription factor (+/- ligand) with hPPARg2: Table 6d, luciferase activity relative to control (control = 1.00)
In short: as §1

Molecule	Luc. act., normalized to lacZ (mAdiponectin promoter)	Normalized Luc. act., normalized to control (mAdiponectin promoter)	mAdiponectin promoter reporter activity (mAdiponectin promoter)	Luc. act., normalized to lacZ (hG6PD promoter)	Normalized Luc. act., normalized to control (hG6PD promoter)	luciferase activity normalized to lacZ activity and to a control, hG6PD (hG6PD promoter)	Luc. act., normalized to lacZ (mPgc1b promoter)	Normalized Luc. act., normalized to control (mPgc1b promoter)	luciferase activity normalized to lacZ activity and to a control, mPgc1b (mPgc1b promoter)	Luc. act., normalized to lacZ (hPPARg1 promoter)	Normalized Luc. act., normalized to control (hPPARg1 promoter)	Results of assays of transcription factor (+/- ligand) with hPPARg1 (hPPARg1 promoter)	Normalized Luc. act., normalized to control (hIRF7 promoter)	Luc. act., normalized to lacZ (hIRF7 promoter)	hIRF7 promoter reporter activity (hIRF7 promoter)	Luc. act., normalized to lacZ (hPPARg2 promoter)	Normalized Luc. act., normalized to control (hPPARg2 promoter)	Results of assays of transcription factor (+/- ligand) with hPPARg2 (hPPARg2 promoter)
hMR: Mineralocorticoid Receptor (NR3C2, MR), cDNA driver (protein, UniProt P08235 1-984, looked up) Mineralocorticoid receptor: METKGYHSLPEGLDMERRWGQVSQAVERSSLGPTERTDENNYMEIVNVSCVSGAIPNNSTQGSSKEKQELLPCLQQDNNRPGILTSDIKTELESKELSATVAESMGLYMDSVRDADYSYEQQNQQGSMSPAKIYQNVEQLVKFYKGNGHRPSTLSCVNTPLRSFMSDSGSSVNGGVMRAVVKSPIMCHEKSPSVCSPLNMTSSVCSPAGINSVSSTTASFGSFPVHSPITQGTPLTCSPNVENRGSRSHSPAHASNVGSPLSSPLSSMKSSISSPPSHCSVKSPVSSPNNVTLRSSVSSPANINNSRCSVSSPSNTNNRSTLSSPAASTVGSICSPVNNAFSYTASGTSAGSSTLRDVVPSPDTQEKGAQEVPFPKTEEVESAISNGVTGQLNIVQYIKPEPDGAFSSSCLGGNSKINSDSSFSVPIKQESTKHSCSGTSFKGNPTVNPFPFMDGSYFSFMDDKDYYSLSGILGPPVPGFDGNCEGSGFPVGIKQEPDDGSYYPEASIPSSAIVGVNSGGQSFHYRIGAQGTISLSRSARDQSFQHLSSFPPVNTLVESWKSHGDLSSRRSDGYPVLEYIPENVSSSTLRSVSTGSSRPSKICLVCGDEASGCHYGVVTCGSCKVFFKRAVEGQHNYLCAGRNDCIIDKIRRKNCPACRLQKCLQAGMNLGARKSKKLGKLKGIHEEQPQQQQPPPPPPPPQSPEEGTTYIAPAKEPSVNTALVPQLSTISRALTPSPVMVLENIEPEIVYAGYDSSKPDTAENLLSTLNRLAGKQMIQVVKWAKVLPGFKNLPLEDQITLIQYSWMCLSSFALSWRSYKHTNSQFLYFAPDLVFNEEKMHQSAMYELCQGMHQISLQFVRLQLTFEEYTIMKVLLLLSTIPKDGLKSQAAFEEMRTNYIKELRKMVTKCPNNSGQSWQRFYQLTKLLDSMHDLVSDLLEFCFYTFRESHALKVEFPAMLVEIISDQLPKVESGNAKPLYFHRK	32.3	0.5	0.51	35.2	0.9	0.94	5.7	0.5	0.48	56.4	0.8	0.82	0.8	21.1	0.80	1.0	0.5	0.51
PR: Progesterone Receptor (NR3C3), cDNA driver (protein, UniProt P06401 1-933, looked up) Progesterone receptor: MTELKAKGPRAPHVAGGPPSPEVGSPLLCRPAAGPFPGSQTSDTLPEVSAIPISLDGLLFPRPCQGQDPSDEKTQDQQSLSDVEGAYSRAEATRGAGGSSSSPPEKDSGLLDSVLDTLLAPSGPGQSQPSPPACEVTSSWCLFGPELPEDPPAAPATQRVLSPLMSRSGCKVGDSSGTAAAHKVLPRGLSPARQLLLPASESPHWSGAPVKPSPQAAAVEVEEEDGSESEESAGPLLKGKPRALGGAAAGGGAAAVPPGAAAGGVALVPKEDSRFSAPRVALVEQDAPMAPGRSPLATTVMDFIHVPILPLNHALLAARTRQLLEDESYDGGAGAASAFAPPRSSPCASSTPVAVGDFPDCAYPPDAEPKDDAYPLYSDFQPPALKIKEEEEGAEASARSPRSYLVAGANPAAFPDFPLGPPPPLPPRATPSRPGEAAVTAAPASASVSSASSSGSTLECILYKAEGAPPQQGPFAPPPCKAPGASGCLLPRDGLPSTSASAAAAGAAPALYPALGLNGLPQLGYQAAVLKEGLPQVYPPYLNYLRPDSEASQSPQYSFESLPQKICLICGDEASGCHYGVLTCGSCKVFFKRAMEGQHNYLCAGRNDCIVDKIRRKNCPACRLRKCCQAGMVLGGRKFKKFNKVRVVRALDAVALPQPVGVPNESQALSQRFTFSPGQDIQLIPPLINLLMSIEPDVIYAGHDNTKPDTSSSLLTSLNQLGERQLLSVVKWSKSLPGFRNLHIDDQITLIQYSWMSLMVFGLGWRSYKHVSGQMLYFAPDLILNEQRMKESSFYSLCLTMWQIPQEFVKLQVSQEEFLCMKVLLLLNTIPLEGLRSQTQFEEMRSSYIRELIKAIGLRQKGVVSSSQRFYQLTKLLDNLHDLVKQLHLYCLNTFIQSRALSVEFPEMMSEVIAAQLPKILAGMVKPLLFHKK	52.9	0.8	0.84	45.4	1.2	1.22	8.9	0.7	0.75	81.3	1.2	1.18	1.3	33.0	1.25	1.8	0.9	0.88
